From patent US20260008856A1 (BLUEFIN BIOMEDICINE, published 2026) come the findings set out here.

Assay [1] has as its target T1, mouse IL1RAP (Met1-Val570 plus Myc-DDK) on transfected 293 cells (Mus musculus, UniProt Q61730 21-570).
T1 construct: whole, on cells; also called MR223729
Description: flow cytometry on 293 cells expressing mouse IL1RAP (293-puro-mouseIL1RAP) vs 293T-puro. The procedure:
(§1) Staining for flow cytometry was performed in 1× cold PBS with 0.5% BSA. Primary antibodies (1 ug/ml) were incubated with live cells on ice for 30 minutes, after a brief wash, cells were incubated with Alexa Fluro® 488-conjugated anti-human IgG secondary antibody @1:1000 (709-546-149, Jackson ImmunoResearch). Acquisition of the data was performed on a MACSQuant® Flow Cytometers (Miltenyi Biotec) and analyzed with FlowJo software.

The target in assay [2] is T2, human IL1RAP on IL1RAP positive human cell lines (EOL-1, Karpas 299; HEK-Blue reporter cells) (human, UniProt Q9NPH3 21-570). As to the kind of experiment: cell-based or functional assay.
The target of assay [3] is T2, human IL1RAP on IL1RAP positive human …. Description: cell-based or functional assay. This is another data set of the same source.
For assay [4], the target named is T3, rat IL1RAP (Met1-Val570 plus Myc-DDK) on transfected 293 cells (Rattus norvegicus, UniProt Q63621 21-570).
T3 construct: whole, on cells; also called RR213032
T3 sequence (Q63621 21-570): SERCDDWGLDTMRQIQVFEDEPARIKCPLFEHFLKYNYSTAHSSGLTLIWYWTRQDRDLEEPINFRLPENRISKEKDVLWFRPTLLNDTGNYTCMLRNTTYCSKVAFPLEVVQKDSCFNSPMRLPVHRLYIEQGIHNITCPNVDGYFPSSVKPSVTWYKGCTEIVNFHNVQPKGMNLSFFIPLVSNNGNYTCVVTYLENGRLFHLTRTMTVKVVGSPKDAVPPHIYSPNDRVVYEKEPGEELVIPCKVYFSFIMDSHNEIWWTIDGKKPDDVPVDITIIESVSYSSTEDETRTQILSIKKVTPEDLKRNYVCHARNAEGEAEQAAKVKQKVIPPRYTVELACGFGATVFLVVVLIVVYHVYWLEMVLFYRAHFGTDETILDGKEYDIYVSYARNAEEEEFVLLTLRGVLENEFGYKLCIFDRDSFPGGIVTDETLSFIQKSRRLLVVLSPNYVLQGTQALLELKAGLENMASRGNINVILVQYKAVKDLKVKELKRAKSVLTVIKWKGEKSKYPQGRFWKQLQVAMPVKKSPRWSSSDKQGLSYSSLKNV
As to the kind of experiment: flow cytometry on 293 cells expressing rat IL1RAP (293-puro-ratIL1RAP) vs 293T-puro. The procedure:
as §1

Assay [5] has as its target T4, huIL1RAP ECD recombinant protein (human, UniProt Q9NPH3 21-367).
T4 construct: also called recombinant human IL1RAP-ECD; recombinant human IL1RAP; not shown: C-terminal histidine tag for purification
Description: Octet BLI, antibody on Protein A biosensor, recombinant huIL1RAP ECD. The procedure:
Affinity: The affinity of antibodies to various recombinant IL1RAP protein was determined on an Octet Red™ instrument. After loading reagents into a 96-well plate, the Octet Red™ with Protein A-conjugated biosensors was programmed as follows: 30 seconds for baseline #1; 120 seconds to immobilize the antibody; 30 seconds for baseline #2; 300 seconds for association of antibody to recombinant IL1RAP; and 300-600 seconds for dissociation of recombinant IL1RAP from the antibody.
For orientation: Biolayer interferometry detects binding as a change in optical thickness at a sensor tip.

Assay [6] concerns the target T3, rat IL1RAP (Met1-Val570 plus Myc-DDK) …. As to the kind of experiment: flow cytometry on 293 cells expressing rat IL1RAP (293-puro-ratIL1RAP) vs 293T-puro [cont.]. The method, then: as §1
Background: A flow cytometer gives signals particle by particle.

Assay [7] concerns the target T4, huIL1RAP ECD recombinant protein. Description: affinity for human IL1RAP (Octet); Table 7 prints 1.4 nM for the same antibody.
Assay [8] addresses T1, mouse IL1RAP (Met1-Val570 plus Myc-DDK) …. Description: flow cytometry on 293 cells expressing mouse IL1RAP (293-puro-mouseIL1RAP) vs 293T-puro [cont.]. The procedure:
as §1

For assay [9], the target named is T3, rat IL1RAP (Met1-Val570 plus Myc-DDK) …. Description: flow cytometry on 293 cells expressing rat IL1RAP (293-puro-ratIL1RAP) vs 293T-puro; 1 ug/ml antibody, Alexa 488 anti-human IgG secondary. The method, then:
as §1

T1 sequence (Q61730 21-570): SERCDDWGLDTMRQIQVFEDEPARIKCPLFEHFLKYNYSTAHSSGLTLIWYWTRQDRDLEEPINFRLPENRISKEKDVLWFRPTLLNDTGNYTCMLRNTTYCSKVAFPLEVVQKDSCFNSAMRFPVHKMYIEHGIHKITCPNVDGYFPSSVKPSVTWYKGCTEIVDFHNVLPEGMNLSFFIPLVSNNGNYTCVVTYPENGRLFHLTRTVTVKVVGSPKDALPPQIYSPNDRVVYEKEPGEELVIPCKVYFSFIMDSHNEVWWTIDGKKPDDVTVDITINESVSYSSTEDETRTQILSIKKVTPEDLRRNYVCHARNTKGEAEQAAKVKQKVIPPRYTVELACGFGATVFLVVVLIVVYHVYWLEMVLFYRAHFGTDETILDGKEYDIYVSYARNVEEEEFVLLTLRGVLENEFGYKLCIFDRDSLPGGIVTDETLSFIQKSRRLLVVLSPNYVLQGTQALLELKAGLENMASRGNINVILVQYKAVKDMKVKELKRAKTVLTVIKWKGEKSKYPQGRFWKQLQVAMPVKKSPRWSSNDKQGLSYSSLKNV

B1: 16H2_17D2 (antibody, V domains shown)
VH: QVQLVESGGGVVQPGGSLRLSCAASGFTFSSHGMHWVRQAPGKGLEWVAVIWYDGSNKFYTDSVQGRFTISRDNSKNTLNLQMNSLRAEDTAVYYCAREGLRAGYYFDFWGQGTLVTVSS
VL: DIQMTQSPSSLSASVGDRVTITCRASQRISFYSNWYQQKPGKAPKLLIYAASSLQSGVPSRFSGSGSGTDFTLTISSLQPEDFATYFCQQSHSTPLTFGGGTKLEIK
What is called Kd is the constant that tells how readily two partners part at equilibrium. In the case of B1, the binding result in assay [1] and in assay [4] was “no binding (tested: 1 ug/ml)” throughout. The “EC50, inhibition of signalling by 0.5 ng/ml IL-1a (IL-1alpha) in the HEK-Blue IL-1 reporter assay (Abs. 620 nM)” value in [2] came out at 0.09 nM. The “EC50, inhibition of signalling by 0.5 ng/ml IL-1beta in HEK-Blue IL-1beta reporter cells (Abs. 620 nM)” value in assay [3] amounted to 0.1 nM. In assay [5], the Kd came to 0.2 nM.

B2: 32C12_21A4 (antibody, V domains shown)
VH: QVQLVESGGGVVQPGRSLRLSCAASGFTFRNYGIHWVRQAPGKGLEWVAVIWYDGSNKFYADSVKGRFTISRDNSKNTLYLQMNSLRVEDTAVYYCAREEGIAVAPFDYWGQGTLVTVSS
VL: DIQMTQSPSSLSASVGDRVAITCRANQSIASYLNWYQQKPGKAPKLLIYGASSLQNGVPSRFSGSGSRTDFTLTISSLQPEDFATYYCQQSYSTEITFGQGTRLEIK
Consider B2, for which the binding result in [6] and in [8] was “no binding (tested: 1 ug/ml)” in each case. In addition, the Kd in assay [7] was determined as 1 nM; in assay [5] it was 1.4 nM.

B3: 24G3_17C5 (antibody, V domains shown)
VH: EVQLLESGGGLVQRGGSLRLSCAASGFTFSSYAMSWVRQAPGKGLEWVSSISGSGDSTNYADSVKGRFTISRDNSKNTLHLQMNSLRAEDTAVYYCVRDYYYGMDVWGHGTTVTVSS
VL: EIVLTQSPATLSLSPGERATLSCRASQSVNSYLAWYQQKPGQAPRLLIYDASNRATGIPARFSGSGSGTDFTLTISSLEPEDFAVYYCQQRSYWPITFGQGTRLEIK
notes: Recombinant human antibody
In the case of B3, the Kd in assay [5] was 37 nM. In addition, in assay [9], the binding result is given as “binds”.
